Results on 2 molecules are retold here after patent publication US20250381284A1 (Eli Lilly, published 2025).

The assay addresses T1, human TfR ECD (human, UniProt P02786 89-760).
T1 construct: extracellular domain; also called Human Transferrin Receptor 1 extracellular domain
Description: SPR (Biacore 8K), human TfR ECD amine-coupled on CM3 chip, 25 C, 2-state model. How it is done:
Target human TfR ECDs were immobilized on a CM3 chip (Cytiva P/N BR100536) using standard NHS-EDC amine coupling. The TfR binding proteins were prepared at a final concentration of 1.8, 0.6, 0.2, 0.067, 0.022, 0.0074, 0.0025 μM respectively by dilution of stock solution into running buffer.
Binding analysis was performed in a single-cycle or multi-cycle kinetics manner. Each analysis cycle consisted of (1) injection of the lowest to highest concentration proteins over all flow channel at 50 μL/min for 200 seconds followed by return to buffer flow for 900 seconds to monitor dissociation phase; (2) regeneration of chip surfaces with injection of 3M magnesium chloride, for 30 seconds at […] over all cells; and (3) equilibration of chip surfaces with a 50 μL (30-sec) injection of HBS-EP+. Data were processed using standard double-referencing and fit to a 2-state binding model using Biacore 8K Evaluation software, to determine the association rate (kₒₙ, M⁻¹s⁻¹ units), dissociation rate (koff, s⁻¹ units), and Rₘₐₓ (RU units). The equilibrium dissociation constant (KD) is calculated from the relationship KD=koff/kₒₙ, and is in molar units.
(In general: SPR reads the build-up and loss of mass on a sensor chip optically.)

B1: TBP5 (Fab1-One Arm Heteromab 2, S124C) (antibody, human IgG4 S228P, kappa, F234A L235A)
heavy 1: EVQLVESGGGLVKPGGSLRLSCVASGFTFSSYSMNWVRQAPGKGLEWVSSISSSSSYIYYADSVKGRFTISRDNAKNSLYLQMNSLRAEDTAVYYCARRHGYSNSDAFDNWGQGTLVTVSSASTKGPCVFPLAPCSRSTSESTAALGCLVKDYFPEPVTVSWNSGALTSGVHTFPAVLQSSGLYSLSSVVTVPSSSLGTKTYTCNVDHKPSNTKVDKRVESKYGPPCPPCPAPEAAGGPSVFLFPPKPKDTLMISRTPEVTCVVVDVSQEDPEVQFNWYVDGVEVHNAKTKPREEQFNSTYRVVSVLTVLHQDWLNGKEYKCKVSNKGLPSSIEKTISKAKGQPREPQVSTLPPSQEEMTKNQVSLMCLVYGFYPSDIAVEWESNGQPENNYKTTPPVLDSDGSFFLYSVLTVDKSRWQEGNVFSCSVMHEALHNHYTQKSLSLSLG
light: DIQMTQSPSAMSASVGDRVTITCRASQGISHYLVWFQQKPGKVPKRLIYAASSLQSGVPSRFSGSGSGTEFTLTISSLQPEDFATYYCLQHNSYPWTFGQGTKVEIKRTVAAPSVFIFPPSDEQLKSGTASVVCLLNNFYPREAKVQWKVDNALQSGNSQESVTEQDSKDSTYSLSSTLTLSKADYEKHKVYACEVTHQGLSSPVTKSFNRGEC
heavy 2: ESKYGPPCPPCPAPEAAGGPSVFLFPPKPKDTLMISRTPEVTCVVVDVSQEDPEVQFNWYVDGVEVHNAKTKPREEQFNSTYRVVSVLTVLHQDWLNGKEYKCKVSNKGLPSSIEKTISKAKGQPREPQVYTLPPSQGDMTKNQVQLTCLVKGFYPSDIAVEWESNGQPENNYKTTPPVLDSDGSFFLASRLTVDKSRWQEGNVFSCSVMHEALHNHYTQKSLSLSLG
notes: One-arm heteromab, hIgG4 PAA, tested as the unconjugated protein; also called OAH2
Turning to B1, the Kd (as a rule, the equilibrium constant for the complex coming apart) is 12.4 nM.

B2: TBP8 (Fab2-VHH) (Fab)
heavy: EVQLVESGGGLVKPGGSLRLSCVASGFTFSSYSMNWVRQAPGKGLEWVSSISSSSSYIYYADSVKGRFTISRDNAKNSLYLQMNSLRAEDTAVYYCARRHGYSNSDAFDTWGQGTLVTVSSASTKGPCVFPLAPSSKSTSGGTAALGCLVKDYFPEPVTVSWNSGALTSGVHTFPAVLQSSGLYSLSSVVTVPSSSLGTQTYICNVNHKPSNTKVDKRVGGGGQGGGGQGGGGQGGGGQGGGGQEVQLLESGGGLVQPGGSLRLSCAASGRYIDETAVAWFRQAPGKGREFVAGIGGGVDITYYADSVKGRFTISRDNSKNTLYLQMNSLRPEDTAVYYCGARPGRPLITSKVADLYPYWGQGTLVTVSSPP
light: DIQMTQSPSAMSASVGDRVTITCRASQGISHYLVWFQQKPGKVPKRLIYAASSLQSGVPSRFSGSGSGTEFTLTISSLQPEDFATYYCLQHNSYPWTFGQGTKVEIKRTVAAPSVFIFPPSDEQLKSGTASVVCLLNNFYPREAKVQWKVDNALQSGNSQESVTEQDSKDSTYSLSSTLTLSKADYEKHKVYACEVTHQGLSSPVTKSFNRGE
In the case of B2, the affinity, expressed as Kd, was 18.6 nM; the koff (in general, the first-order rate constant of dissociation) came out at 0.00671 s⁻¹; the kon (as a rule, the second-order rate constant of association) was 361000 M⁻¹ s⁻¹.
